# Laboratory results reported in IntAct's records for PubMed 29051512.
# B1: CMRF35-like molecule 7 (Homo sapiens), A8K4G0 (parent)
# chain: MWLPPALLLLSLSGCFSIQGPESVRAPEQGSLTVQCHYKQGWETYIKWWCRGVRWDTCKILIETRGSEQGEKSDRVSIKDNQKDRTFTVTMEGLRRDDADVYWCGIERRGPDLGTQVKVIVDPEGAASTTASSPTNSNMAVFIGSHKRNHYMLLVFVKVPILLILVTAILWLKGSQRVPEEPGEQPIYMNFSEPLTKDMAT
# partner: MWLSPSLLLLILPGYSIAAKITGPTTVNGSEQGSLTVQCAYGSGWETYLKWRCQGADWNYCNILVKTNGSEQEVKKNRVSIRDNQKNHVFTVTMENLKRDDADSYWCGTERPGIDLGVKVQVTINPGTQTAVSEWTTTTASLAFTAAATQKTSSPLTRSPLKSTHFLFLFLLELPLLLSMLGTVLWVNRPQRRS
# B2: CMRF35-like molecule 7 (Homo sapiens), A8K4G0 (parent)
# chain: B1 chain
# partner: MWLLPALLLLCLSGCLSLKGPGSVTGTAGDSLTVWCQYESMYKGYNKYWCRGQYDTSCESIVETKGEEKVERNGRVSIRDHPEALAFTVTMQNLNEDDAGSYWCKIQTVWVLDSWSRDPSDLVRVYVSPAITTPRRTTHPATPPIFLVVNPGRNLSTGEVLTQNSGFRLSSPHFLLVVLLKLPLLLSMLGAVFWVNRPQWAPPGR
# B3: CMRF35-like molecule 7 (Homo sapiens), A8K4G0 (parent)
# chain: B1 chain
# partner: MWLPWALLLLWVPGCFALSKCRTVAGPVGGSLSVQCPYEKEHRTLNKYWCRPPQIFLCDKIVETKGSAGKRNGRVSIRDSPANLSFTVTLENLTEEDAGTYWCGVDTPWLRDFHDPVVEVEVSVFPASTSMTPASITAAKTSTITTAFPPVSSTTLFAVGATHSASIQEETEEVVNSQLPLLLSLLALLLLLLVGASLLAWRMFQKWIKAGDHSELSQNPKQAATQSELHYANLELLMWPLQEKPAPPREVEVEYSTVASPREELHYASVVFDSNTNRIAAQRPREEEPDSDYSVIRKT
# B4: CMRF35-like molecule 7 (Homo sapiens), A8K4G0 (parent)
# chain: B1 chain
# partner: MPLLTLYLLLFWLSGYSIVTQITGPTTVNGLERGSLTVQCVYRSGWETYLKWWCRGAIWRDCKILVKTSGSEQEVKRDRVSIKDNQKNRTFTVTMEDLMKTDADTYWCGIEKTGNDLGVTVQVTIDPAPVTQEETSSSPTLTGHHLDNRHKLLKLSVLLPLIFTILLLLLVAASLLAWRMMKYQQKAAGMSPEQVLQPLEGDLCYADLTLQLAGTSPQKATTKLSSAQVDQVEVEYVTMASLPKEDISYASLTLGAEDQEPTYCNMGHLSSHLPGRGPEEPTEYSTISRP
# B5: CMRF35-like molecule 7 (Homo sapiens), A8K4G0 (parent)
# chain: B1 chain
# partner: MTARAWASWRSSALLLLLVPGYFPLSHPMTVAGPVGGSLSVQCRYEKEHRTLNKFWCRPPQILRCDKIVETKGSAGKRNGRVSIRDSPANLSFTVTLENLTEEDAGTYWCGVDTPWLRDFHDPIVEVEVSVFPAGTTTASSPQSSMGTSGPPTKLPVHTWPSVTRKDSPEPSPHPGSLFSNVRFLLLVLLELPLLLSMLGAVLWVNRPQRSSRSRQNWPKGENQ
# Variants of: B1
# Settings: with clm5_human CD300LD
row,Variant,effect of a mutation on the interaction
1,E28A;Q29G,decreasing interaction strength

# Variants of: B2
# Settings: with clm2_human CD300E
row,Variant,effect of a mutation on the interaction
1,E28A;Q29G,decreasing interaction strength

# Variants of: B3
# Settings: with clm8_human CD300A
row,Variant,effect of a mutation on the interaction
1,E28A;Q29G,decreasing interaction strength

# Variants of: B4
# Settings: with clm1_human CD300LF
row,Variant,effect of a mutation on the interaction
1,E28A;Q29G,decreasing interaction strength

# Variants of: B5
# Settings: with clm6_human CD300C
row,Variant,effect of a mutation on the interaction
1,R95G;D97G,with no effect
2,E28A;Q29G,decreasing interaction strength
